From patent publication US20220348651A1, “ENTPD2 ANTIBODIES, COMBINATION THERAPIES, AND METHODS OF USING THE ANTIBODIES AND COMBINATION THERAPIES” (Novartis AG, priority 2019, published 2022)

Legend:
H520 cells = assay: Cross reactivity: FACS binding to H520 cells (ENTPD3 and ENTPD8 expression); set-up: species or system human; details: 50 nM antibody
Protocol: (§1) FACS screening: Specific binding of candidate antibodies to endogenously expressed ENTPD2 was assessed by flow cytometry. Cells were rinsed thoroughly with 1×PBS and treated with Accutase (Millipore #SCR005) to lift from growth plates and resuspended at approximately 1×10^5 cells/90 μL in 1× FACS buffer (2% FBS+0.1% NaN3 in PBS). In a 96-well U-bottom plate, 10 μL of 10× antibody solution in FACS buffer was pre-seeded and 90 μL of cell suspension was added. Cell were incubated for 30 minutes at 4° C., washed 1× with cold PBS and resuspended in 100 μL of 1:500 secondary antibody 1× FACS buffer (Allophycocyanin conjugated F(ab′)2 goat anti-human IgG, Fcγ specific; Jackson Immunoresearch, Cat#109-136-098). After additional incubation for 15 min at 4° C., cells were washed twice with PBS and resuspended in 100 μL of 1×FACS buffer with 4 μg/mL propidium iodide (Life Technologies, Cat#P3566). Geometric mean fluorescence intensity was calculated on live single cells using FlowJo software.
H520 cells were identified as a cancer cell line with ENTPD3 (Ct 25) and ENTPD8 (Ct 26) expression by Taqman and were used for selectivity screening.

NIH/3T3 cells = assay: Cross reactivity: FACS binding to NIH/3T3 control cells; details: 50 nM antibody
Protocol: as §1
Cross reactivity Human ENTPD1 (NP_001767) expressing NIH/3T3 cells were generated using a retroviral transduction approach. 72 hrs post transduction, engineered cells were stained with the anti-Human CD39/ENTPD1 APC-conjugated Antibody (R&D systems, Minneapolis, Minn.) and live cells that expressed human ENTPD1 were separated from the rest of the population via fluorescence activated cell sorting. […]

mouse ENTPD2 = molecular target: T1, mouse ENTPD2 (Mus musculus, UniProt O55026); assay: Mouse ENTPD2 NIH/3T3 cell-based functional assay
T1 construct: expressed in transfected cells; host or cells: NIH/3T3 (retroviral transduction)
T1 sequence (O55026 1-495): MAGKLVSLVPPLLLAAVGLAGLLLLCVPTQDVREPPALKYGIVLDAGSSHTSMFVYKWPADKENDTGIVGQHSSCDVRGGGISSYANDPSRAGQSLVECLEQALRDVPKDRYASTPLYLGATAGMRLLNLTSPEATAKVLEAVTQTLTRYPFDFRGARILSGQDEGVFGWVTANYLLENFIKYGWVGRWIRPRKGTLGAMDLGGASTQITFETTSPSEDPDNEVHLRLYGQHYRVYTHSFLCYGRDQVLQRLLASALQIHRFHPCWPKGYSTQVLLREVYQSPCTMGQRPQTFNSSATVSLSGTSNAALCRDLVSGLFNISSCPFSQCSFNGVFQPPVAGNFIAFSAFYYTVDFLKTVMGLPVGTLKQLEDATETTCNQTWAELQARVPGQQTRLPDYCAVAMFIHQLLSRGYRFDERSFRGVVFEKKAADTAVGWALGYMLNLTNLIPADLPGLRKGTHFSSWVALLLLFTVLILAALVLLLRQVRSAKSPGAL
Text: Biochemical and cell-based functional assays were developed in-house to understand functional impact of anti-ENTPD2 Abs against purified extracellular domain of ENTPD2 (residues 29-462), as well as against the fully intact protein in the context of the native cell-based conformation. ENTPD2 hydrolyzes ATP to ADP, which can subsequently be detected using the HTRF Transcreener ADP2 TR-FRET Red Assay (BellBrook Labs, Madison, Wis.) where ENTPD2-produced ADP would compete with the ADP Tracer for binding to the anti-ADP-Tb antibody. The resulting signal is inversely proportional to the concentration of ADP in the sample.
To establish cell-based functional assays, human/cyno/mouse ENTPD2-engineered NIH/3T3 cells or RKO (ATCC, Manassa Va.) colorectal cancer cells with endogenous ENTPD2 expression were plated overnight at 150, 200 and 250 cells per well for NIH/3T3 mouse, cyno and human ENTPD2 lines, respectively, or 1000 cells per well for RKO in 384-well tissue culture plate, in 30 μl per well (Perkin Elmer, Waltham, Mass.). The following day cells were pre-incubated with Anti-ENTPD2 Abs in dose response for 60 min at 37° C., 5% CO2 (10 μl of 5× antibody dose per well), and subsequently stimulated with a final concentration of 10 μM ATP (Teknova, Hollister, Calif.) for 20 minutes at room temperature (10 μl of 5× (50 μM) ATP per well). Reactions were quenched with 40 mM EDTA/40 mM EGTA, 25 μl per well, and 15 μl of quenched media was transferred to low volume Proxiplates (PerkinElmer, Waltham, Mass.) for ADP detection. ADP production was detected with the Transcreener ADP2 TR-FRET Red Assay (BellBrook Labs, Madison, Wis.) with a final concentration of 4 nM ADP2 antibody and 13.4 nM of ADP Tracer in wells (4× solution was prepared and 5 μL of “Detection Reagent Mix” was added to the quenched conditioned media). Plates were incubated with detection reagents for 1 hour at room temperature prior to reading plates in HTRF mode.
HTRF signal (Emission at 620 nm and 665 nm) was assessed in both assays using the Envision plate reader in HTRF mode (Perkin Elmer, Waltham, Mass.). HTRF ratio was determined using the following formula: HTRF ratio=R=Emission at 665 nm/Emission at 620 nm×10,000. Subsequently % Residual Activity and % Inhibition were determined as follows:
Where R0% is the HTRF ratio of the negative control (0% enzyme activity), and R100% is the HTRF ratio of the positive control (100% enzyme activity). Data were analyzed in Microsoft Excel and graphed using GraphPad's Prism 7.0 software and IC50 values were obtained using non-linear regression, log (agonist) vs. response-variable slope (four parameters) analysis.
Anti-ENTPD2 mAb13 was identified as a mouse ENTPD2 selective Ab (FACS EC50 3-4 nM) with no binding to human or cyno ENTPD2.

B1: mAb7: humanized anti-human ENTPD2 antibody from mAb17; VH SEQ ID NO: 25, VL SEQ ID NO: 78 (antibody, V domains shown)
VH: QVQLVQSGAEVVKPGASVKISCKASGYTFTDYNMDWVKQAPGQRLEWIGDINPKYDISTYNQQFKGKATITVDKSASTAYMELSSLRSEDTAVYYCARRGFFLYYGINYYYFDVWGQGTLVTVSS
VL: EIVLTQSPATLSASPGEEITLSCSASSSVSYIHWYQQKPGQAPRLLIYSTSNLASGIPARFSGSGSGTFYTLTISSVEPEDAAVYYCHQWSSYPWTFGGGTKLEIK
H520 cells
  Apparent FACS binding at 50 nM: No binding
NIH/3T3 cells
  Apparent FACS binding at 50 nM: No binding

B2: mAb13: anti-mouse ENTPD2 antibody; HC SEQ ID NO: 193, LC SEQ ID NO: 204 (antibody)
heavy: QVQLVQSGAELKQPGQSVKISCKASGYTFTHYGMNWVKQAPGQGLKWMGWINTDTGNPTYADDFKGRFVFSLDTSVSTAYLQISNLKNEDTATYYCVRYGTLYSGYGFFFDSWGQGTLVTVSSAKTTAPSVYPLAPVCGDTTGSSVTLGCLVKGYFPEPVTLTWNSGSLSSGVHTFPAVLQSDLYTLSSSVTVTSSTWPSQSITCNVAHPASSTKVDKKIEPRGPTIKPCPPCKCPAPNLLGGPSVFIFPPKIKDVLMISLSPIVTCVVVDVSEDDPDVQISWFVNNVEVHTAQTQTHREDYNSTLRVVSALPIQHQDWMSGKEFKCKVNNKDLPAPIERTISKPKGSVRAPQVYVLPPPEEEMTKKQVTLTCMVTDFMPEDIYVEWTNNGKTELNYKNTEPVLDSDGSYFMYSKLRVEKKNWVERNSYSCSVVHEGLHNHHTTKSFSRTPGK
light: DIMMTQSPSSLSVSAGEKATITCKSSQSLFNSNTNKNYLNWYLQKPGQSPKLLFYYASTRHTGVPDRFIGSGSGTDFTLTITSVQDEDLADYYCQQWYSYPWTFGPGTKLEIKRADAAPTVSIFPPSSEQLTSGGASVVCFLNNFYPKDINVKWKIDGSERQNGVLNSWTDQDSKDSTYSMSSTLTLTKDEYERHNSYTCEATHKTSTSPIVKSFNRNEC
Mouse ENTPD2; NIH3T3-mouse ENTPD2 engineered cell line
  maximum target inhibition (mouse ENTPD2 inhibition): 44%
Mouse ENTPD2; mouse ENTPD2 NIH/3T3 cells, 100 nM
  % Inhibition at 100 nM (±Std Err): 44 ± 7.3%
